Among the data in PMC2193676 are Kd values, retold here.

The test has as its target biotinylated K^d-SYIPSAEK(ABA)I (H-2K^d heavy chain, human β2-microglobulin, photoreactive PbCS(ABA) peptide) (not stated | human | Plasmodium berghei). As to the kind of experiment: SPR.

For the substance “soluble CD8αβ (extracellular portions of murine CD8α and CD8β fused to leucine zipper units) (complex)”, the Kd (as a rule, the concentration at which binding is half-saturated) is 99 µM.
